In patent publication US20250376539A1 (KIRA PHARMACEUTICALS SUZHOU, published 2025):
“And” between values parts separate entries of the source, which are not always exact repeats. Equal entries are not always repeated.

Tests used:
[1] = target: T1, recombinant cyno C2a, C-terminal 6His-tag, made in house (CHO cell expression) (cynomolgus monkey, UniProt P06681 244-752 (human entry)); assay: ELISA
T1 chain: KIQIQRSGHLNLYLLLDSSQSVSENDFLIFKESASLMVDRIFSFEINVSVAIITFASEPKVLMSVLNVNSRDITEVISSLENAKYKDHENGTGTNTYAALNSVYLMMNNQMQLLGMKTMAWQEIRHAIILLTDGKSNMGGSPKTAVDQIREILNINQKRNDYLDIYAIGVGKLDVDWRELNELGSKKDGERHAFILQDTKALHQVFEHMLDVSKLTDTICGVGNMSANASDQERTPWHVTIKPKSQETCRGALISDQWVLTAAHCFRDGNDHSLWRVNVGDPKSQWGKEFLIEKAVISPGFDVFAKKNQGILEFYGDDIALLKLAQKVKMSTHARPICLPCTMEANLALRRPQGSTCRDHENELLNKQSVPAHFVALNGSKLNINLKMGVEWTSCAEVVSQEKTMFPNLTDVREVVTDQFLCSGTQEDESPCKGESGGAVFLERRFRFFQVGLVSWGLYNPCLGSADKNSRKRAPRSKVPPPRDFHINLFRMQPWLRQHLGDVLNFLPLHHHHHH

[2] = target: T2, recombinant human complement C2 (NP_000054.2), C-terminal 6His-tag, made in house (CHO cell expression) (human, UniProt P06681 21-752); assay: binding kinetics, neutral pH (BLI presumed)
T2 construct: a linker before the tag is not described; also called human C2; Human C2
T2 sequence: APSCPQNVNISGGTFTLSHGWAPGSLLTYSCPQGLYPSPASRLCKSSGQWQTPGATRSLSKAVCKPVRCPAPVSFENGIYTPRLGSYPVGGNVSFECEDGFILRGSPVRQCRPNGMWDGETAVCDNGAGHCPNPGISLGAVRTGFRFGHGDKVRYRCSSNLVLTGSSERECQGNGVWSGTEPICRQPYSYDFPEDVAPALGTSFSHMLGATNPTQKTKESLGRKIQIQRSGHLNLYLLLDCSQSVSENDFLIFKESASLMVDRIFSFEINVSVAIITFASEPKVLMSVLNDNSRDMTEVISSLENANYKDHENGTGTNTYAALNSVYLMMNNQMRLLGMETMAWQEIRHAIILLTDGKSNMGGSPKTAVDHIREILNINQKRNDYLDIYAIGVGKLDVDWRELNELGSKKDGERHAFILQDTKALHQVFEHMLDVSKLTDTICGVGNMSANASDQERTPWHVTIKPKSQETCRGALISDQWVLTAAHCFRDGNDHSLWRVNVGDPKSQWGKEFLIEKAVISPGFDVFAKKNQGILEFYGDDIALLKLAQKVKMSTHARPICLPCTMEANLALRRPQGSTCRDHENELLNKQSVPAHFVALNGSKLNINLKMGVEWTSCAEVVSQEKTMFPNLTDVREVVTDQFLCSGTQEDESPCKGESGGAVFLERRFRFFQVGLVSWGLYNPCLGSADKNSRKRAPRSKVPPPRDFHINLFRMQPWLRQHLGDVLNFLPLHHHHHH

[3] = target: T2, recombinant human complement C2 …; assay: BLI (Gator); ratio of dissociation at pH 5.8 to pH 7.4
Method: (§1) The histidine mutant constructs in Table 4 were tested for their pH-dependent dissociation from human C2. Probe-immobilized anti-C2 antibodies were incubated with C2 at pH 7.4 for 600s, followed by a 600s dissociation period in K Buffer at pH 7.4 or pH 5.8. The data were processed and analyzed by the Gator evaluation software.
(§2) Non-fusion mAb were used for comparison.

[4] = target: T3, recombinant cynomolgus (cyno) complement C2 (XP_005553508.1), C-terminal 6His-tag, made in house (CHO cell … (cynomolgus monkey (Macaca fascicularis), UniProt P06681 21-752 (human entry))); assay: as above
T3 construct: also called cyno C2; Cyno C2
T3 chain: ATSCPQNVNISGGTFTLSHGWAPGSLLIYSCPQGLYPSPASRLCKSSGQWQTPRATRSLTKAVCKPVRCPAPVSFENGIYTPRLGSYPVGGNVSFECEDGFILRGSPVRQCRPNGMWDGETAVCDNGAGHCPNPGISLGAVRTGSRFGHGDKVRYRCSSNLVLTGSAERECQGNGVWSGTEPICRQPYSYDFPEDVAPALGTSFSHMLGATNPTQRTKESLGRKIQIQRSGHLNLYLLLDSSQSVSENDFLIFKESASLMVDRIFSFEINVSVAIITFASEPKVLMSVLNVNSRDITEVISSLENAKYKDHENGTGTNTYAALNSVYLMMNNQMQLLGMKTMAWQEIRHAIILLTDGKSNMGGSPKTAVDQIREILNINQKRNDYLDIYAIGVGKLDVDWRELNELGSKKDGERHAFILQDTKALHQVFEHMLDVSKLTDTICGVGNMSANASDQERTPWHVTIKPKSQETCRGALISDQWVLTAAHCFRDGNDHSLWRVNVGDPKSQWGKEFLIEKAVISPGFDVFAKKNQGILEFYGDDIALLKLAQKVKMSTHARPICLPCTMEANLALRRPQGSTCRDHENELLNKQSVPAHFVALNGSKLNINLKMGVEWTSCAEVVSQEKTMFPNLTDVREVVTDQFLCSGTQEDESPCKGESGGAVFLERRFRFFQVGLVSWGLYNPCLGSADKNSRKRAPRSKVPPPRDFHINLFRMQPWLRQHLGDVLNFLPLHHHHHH
Method: as §1, §2

[5] = target: T2, recombinant human complement C2 …; assay: BLI (Gator), antibody on probe; 600 s association at pH 7.4, 600 s dissociation at pH 7.4
Method: as §1, §2

[6] = target: T3, recombinant cynomolgus (cyno) …; assay: as above
Method: as §1, §2

Binder	EC50 [1] [nM]	Kd [2]	koff [2]	kon [2]	Fold dissociation pH 5.8/pH 7.4 [3] [fold]	Fold dissociation pH 5.8/pH 7.4 [4] [fold]	Dissociation (%) pH 7.4 [5] [%]	Dissociation (%) pH 7.4 [6] [%]
anti-C2 antibody 69.44 (antibody, IgG4, V domains shown, Recombinant) VH: QVQLVQSGAEVKKPGASVKVSCKASGYSFTTYYMYWVRQAPGQGLEWMGIITPSGGSTTYAQKFQDRVTMTRDASTTTVYMELSSLRSEDTAVYYCARGYEGSYGFDHWGQGTLVTVSS VL: SYELTQPPSVSLSPGQTASITCSGDKLGNKYTCWYQQKPGQSPVLVIYQDNKRPSGIPERFSGSNSGNTATLTISGTQAMDEADYYCQTWDSSTAVFGGGTKLTVL	0.119	0.296 nM	5.85e-05 s⁻¹	197000 M⁻¹ s⁻¹	0.78	1.5	3.15	4.81
anti-C2 antibody 3.2 (antibody, IgG4, V domains shown, Recombinant; also called WT; "WT" 3.2) VH: EVQLLESGGGLVQPGGSLRLSCAASGFTFRHYAMSWVRQAPGKGLEWVSLISGSGASTFYADSVKGRFTISRDNSENMLYLQMNSLRAEDTAVYYCAKDSLAVAGSEYFQHWGQGTLVTVSS VL: SYVLTQAPSVSVAPGQTARITCGGNYFGGKSVHWYQQRPGQAPVLVVYDDSDRPSGIPERFSGSKSGNTATLAISRVEAGDEAAYYCQVYDTSSDHWVFGGGTKLTVL	–	0.198 nM and 0.0984 nM	6.12e-05 s⁻¹ and 3.73e-05 s⁻¹	308000 M⁻¹ s⁻¹ and 379000 M⁻¹ s⁻¹	1.97	2.7	5.27	5.37
